According to publication PMC8358895 (Cell reports, 2021):

Biological target: MBP-PLK1 (UniProt P53350 1-603)
Assay: pull-down

Sequence of MBP-PLK1 (P53350 whole entry): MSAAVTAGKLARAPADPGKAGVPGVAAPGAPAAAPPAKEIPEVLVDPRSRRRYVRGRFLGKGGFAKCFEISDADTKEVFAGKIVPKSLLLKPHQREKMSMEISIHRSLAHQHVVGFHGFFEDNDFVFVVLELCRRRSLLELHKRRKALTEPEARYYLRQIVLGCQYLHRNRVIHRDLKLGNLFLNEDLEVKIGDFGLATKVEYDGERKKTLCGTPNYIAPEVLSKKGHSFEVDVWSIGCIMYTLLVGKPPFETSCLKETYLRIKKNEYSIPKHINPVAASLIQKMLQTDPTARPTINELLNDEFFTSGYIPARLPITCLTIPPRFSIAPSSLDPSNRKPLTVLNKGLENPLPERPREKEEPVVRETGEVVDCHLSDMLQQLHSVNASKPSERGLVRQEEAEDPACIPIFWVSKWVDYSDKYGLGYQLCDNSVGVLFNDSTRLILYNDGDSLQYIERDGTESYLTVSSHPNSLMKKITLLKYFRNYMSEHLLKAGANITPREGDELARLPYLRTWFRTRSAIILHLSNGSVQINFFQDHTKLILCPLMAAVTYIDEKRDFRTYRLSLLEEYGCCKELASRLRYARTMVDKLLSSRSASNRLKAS

B1: GST-Apolo1-N (domain or fragment)
chain: MFLPHMNHLTLEQTFFSQVLPKTVKLFDDMMYELTSQARGLSSQNLEIQTTLRNILQTMVQLLGALTGCVQHICATQESIILENIQSLPSSVLHIIKSTFVHCKNSESVYSGCLHLVSDLLQALFKEAYSLQKQLMELLDMVCMDPLVDDNDDILNMVIVIHSLLDICSVISSMDH
- binding result: binds
